Results reported in patent publication US20050037404A1.

Molecular target: all of the coactivators tested
Experiment: cell-based or functional assay

B1: VP16 transactivation domain linked to the ligand binding domain of SXR (VP-L-SXR), P06492 413-490; O75469 107-434 (protein)
chain: APPTDVSLGDELHLDGEDVAMAHADALDDFDLDMLGDGDSPGPGFTPHDSAPYGALDMADFEFEQMFTDALGIDEYGGMKKEMIMSDEAVEERRALIKRKKSERTGTQPLGVQGLTEEQRMMIRELMDAQMKTFDTTFSHFKNFRLPGVLSSGCELPESLQAPSREEAAKWSQVRKDLCSLKVSLQLRGEDGSVWNYKPPADSGGKEIFSLLPHMADMSTYMFKGIISFAKVISYFRDLPIEDQISLLKGAAFELCQLRFNTVFNAETGTWECGRLSYCLEDTAGGFQQLLLEPMLKFHYMLKKLQLHEEEYVLMQAISLFSPDRPGVLQHRVVDQLQEQFAITLKSYIECNRPQPAHRFLFLKIMAMLTELRSINAQHTQRLLRIQDIHPFATPLMQELFGITGS
Gal4 reporter activity in mammalian two-hybrid assay, 10 µM docetaxel against 10 µM paclitaxel (% less than with paclitaxel): 25 to 40
